Source: publication doi:10.1101/2024.12.20.629683 (bioRxiv, 2024)

Biological target: Ryanodine receptor 1 (RyR1) (rabbit (endogenous in skeletal muscle), UniProt P11716)
Assay: cryo-EM structure

Sequence of Ryanodine receptor 1 (RyR1) (P11716 whole entry): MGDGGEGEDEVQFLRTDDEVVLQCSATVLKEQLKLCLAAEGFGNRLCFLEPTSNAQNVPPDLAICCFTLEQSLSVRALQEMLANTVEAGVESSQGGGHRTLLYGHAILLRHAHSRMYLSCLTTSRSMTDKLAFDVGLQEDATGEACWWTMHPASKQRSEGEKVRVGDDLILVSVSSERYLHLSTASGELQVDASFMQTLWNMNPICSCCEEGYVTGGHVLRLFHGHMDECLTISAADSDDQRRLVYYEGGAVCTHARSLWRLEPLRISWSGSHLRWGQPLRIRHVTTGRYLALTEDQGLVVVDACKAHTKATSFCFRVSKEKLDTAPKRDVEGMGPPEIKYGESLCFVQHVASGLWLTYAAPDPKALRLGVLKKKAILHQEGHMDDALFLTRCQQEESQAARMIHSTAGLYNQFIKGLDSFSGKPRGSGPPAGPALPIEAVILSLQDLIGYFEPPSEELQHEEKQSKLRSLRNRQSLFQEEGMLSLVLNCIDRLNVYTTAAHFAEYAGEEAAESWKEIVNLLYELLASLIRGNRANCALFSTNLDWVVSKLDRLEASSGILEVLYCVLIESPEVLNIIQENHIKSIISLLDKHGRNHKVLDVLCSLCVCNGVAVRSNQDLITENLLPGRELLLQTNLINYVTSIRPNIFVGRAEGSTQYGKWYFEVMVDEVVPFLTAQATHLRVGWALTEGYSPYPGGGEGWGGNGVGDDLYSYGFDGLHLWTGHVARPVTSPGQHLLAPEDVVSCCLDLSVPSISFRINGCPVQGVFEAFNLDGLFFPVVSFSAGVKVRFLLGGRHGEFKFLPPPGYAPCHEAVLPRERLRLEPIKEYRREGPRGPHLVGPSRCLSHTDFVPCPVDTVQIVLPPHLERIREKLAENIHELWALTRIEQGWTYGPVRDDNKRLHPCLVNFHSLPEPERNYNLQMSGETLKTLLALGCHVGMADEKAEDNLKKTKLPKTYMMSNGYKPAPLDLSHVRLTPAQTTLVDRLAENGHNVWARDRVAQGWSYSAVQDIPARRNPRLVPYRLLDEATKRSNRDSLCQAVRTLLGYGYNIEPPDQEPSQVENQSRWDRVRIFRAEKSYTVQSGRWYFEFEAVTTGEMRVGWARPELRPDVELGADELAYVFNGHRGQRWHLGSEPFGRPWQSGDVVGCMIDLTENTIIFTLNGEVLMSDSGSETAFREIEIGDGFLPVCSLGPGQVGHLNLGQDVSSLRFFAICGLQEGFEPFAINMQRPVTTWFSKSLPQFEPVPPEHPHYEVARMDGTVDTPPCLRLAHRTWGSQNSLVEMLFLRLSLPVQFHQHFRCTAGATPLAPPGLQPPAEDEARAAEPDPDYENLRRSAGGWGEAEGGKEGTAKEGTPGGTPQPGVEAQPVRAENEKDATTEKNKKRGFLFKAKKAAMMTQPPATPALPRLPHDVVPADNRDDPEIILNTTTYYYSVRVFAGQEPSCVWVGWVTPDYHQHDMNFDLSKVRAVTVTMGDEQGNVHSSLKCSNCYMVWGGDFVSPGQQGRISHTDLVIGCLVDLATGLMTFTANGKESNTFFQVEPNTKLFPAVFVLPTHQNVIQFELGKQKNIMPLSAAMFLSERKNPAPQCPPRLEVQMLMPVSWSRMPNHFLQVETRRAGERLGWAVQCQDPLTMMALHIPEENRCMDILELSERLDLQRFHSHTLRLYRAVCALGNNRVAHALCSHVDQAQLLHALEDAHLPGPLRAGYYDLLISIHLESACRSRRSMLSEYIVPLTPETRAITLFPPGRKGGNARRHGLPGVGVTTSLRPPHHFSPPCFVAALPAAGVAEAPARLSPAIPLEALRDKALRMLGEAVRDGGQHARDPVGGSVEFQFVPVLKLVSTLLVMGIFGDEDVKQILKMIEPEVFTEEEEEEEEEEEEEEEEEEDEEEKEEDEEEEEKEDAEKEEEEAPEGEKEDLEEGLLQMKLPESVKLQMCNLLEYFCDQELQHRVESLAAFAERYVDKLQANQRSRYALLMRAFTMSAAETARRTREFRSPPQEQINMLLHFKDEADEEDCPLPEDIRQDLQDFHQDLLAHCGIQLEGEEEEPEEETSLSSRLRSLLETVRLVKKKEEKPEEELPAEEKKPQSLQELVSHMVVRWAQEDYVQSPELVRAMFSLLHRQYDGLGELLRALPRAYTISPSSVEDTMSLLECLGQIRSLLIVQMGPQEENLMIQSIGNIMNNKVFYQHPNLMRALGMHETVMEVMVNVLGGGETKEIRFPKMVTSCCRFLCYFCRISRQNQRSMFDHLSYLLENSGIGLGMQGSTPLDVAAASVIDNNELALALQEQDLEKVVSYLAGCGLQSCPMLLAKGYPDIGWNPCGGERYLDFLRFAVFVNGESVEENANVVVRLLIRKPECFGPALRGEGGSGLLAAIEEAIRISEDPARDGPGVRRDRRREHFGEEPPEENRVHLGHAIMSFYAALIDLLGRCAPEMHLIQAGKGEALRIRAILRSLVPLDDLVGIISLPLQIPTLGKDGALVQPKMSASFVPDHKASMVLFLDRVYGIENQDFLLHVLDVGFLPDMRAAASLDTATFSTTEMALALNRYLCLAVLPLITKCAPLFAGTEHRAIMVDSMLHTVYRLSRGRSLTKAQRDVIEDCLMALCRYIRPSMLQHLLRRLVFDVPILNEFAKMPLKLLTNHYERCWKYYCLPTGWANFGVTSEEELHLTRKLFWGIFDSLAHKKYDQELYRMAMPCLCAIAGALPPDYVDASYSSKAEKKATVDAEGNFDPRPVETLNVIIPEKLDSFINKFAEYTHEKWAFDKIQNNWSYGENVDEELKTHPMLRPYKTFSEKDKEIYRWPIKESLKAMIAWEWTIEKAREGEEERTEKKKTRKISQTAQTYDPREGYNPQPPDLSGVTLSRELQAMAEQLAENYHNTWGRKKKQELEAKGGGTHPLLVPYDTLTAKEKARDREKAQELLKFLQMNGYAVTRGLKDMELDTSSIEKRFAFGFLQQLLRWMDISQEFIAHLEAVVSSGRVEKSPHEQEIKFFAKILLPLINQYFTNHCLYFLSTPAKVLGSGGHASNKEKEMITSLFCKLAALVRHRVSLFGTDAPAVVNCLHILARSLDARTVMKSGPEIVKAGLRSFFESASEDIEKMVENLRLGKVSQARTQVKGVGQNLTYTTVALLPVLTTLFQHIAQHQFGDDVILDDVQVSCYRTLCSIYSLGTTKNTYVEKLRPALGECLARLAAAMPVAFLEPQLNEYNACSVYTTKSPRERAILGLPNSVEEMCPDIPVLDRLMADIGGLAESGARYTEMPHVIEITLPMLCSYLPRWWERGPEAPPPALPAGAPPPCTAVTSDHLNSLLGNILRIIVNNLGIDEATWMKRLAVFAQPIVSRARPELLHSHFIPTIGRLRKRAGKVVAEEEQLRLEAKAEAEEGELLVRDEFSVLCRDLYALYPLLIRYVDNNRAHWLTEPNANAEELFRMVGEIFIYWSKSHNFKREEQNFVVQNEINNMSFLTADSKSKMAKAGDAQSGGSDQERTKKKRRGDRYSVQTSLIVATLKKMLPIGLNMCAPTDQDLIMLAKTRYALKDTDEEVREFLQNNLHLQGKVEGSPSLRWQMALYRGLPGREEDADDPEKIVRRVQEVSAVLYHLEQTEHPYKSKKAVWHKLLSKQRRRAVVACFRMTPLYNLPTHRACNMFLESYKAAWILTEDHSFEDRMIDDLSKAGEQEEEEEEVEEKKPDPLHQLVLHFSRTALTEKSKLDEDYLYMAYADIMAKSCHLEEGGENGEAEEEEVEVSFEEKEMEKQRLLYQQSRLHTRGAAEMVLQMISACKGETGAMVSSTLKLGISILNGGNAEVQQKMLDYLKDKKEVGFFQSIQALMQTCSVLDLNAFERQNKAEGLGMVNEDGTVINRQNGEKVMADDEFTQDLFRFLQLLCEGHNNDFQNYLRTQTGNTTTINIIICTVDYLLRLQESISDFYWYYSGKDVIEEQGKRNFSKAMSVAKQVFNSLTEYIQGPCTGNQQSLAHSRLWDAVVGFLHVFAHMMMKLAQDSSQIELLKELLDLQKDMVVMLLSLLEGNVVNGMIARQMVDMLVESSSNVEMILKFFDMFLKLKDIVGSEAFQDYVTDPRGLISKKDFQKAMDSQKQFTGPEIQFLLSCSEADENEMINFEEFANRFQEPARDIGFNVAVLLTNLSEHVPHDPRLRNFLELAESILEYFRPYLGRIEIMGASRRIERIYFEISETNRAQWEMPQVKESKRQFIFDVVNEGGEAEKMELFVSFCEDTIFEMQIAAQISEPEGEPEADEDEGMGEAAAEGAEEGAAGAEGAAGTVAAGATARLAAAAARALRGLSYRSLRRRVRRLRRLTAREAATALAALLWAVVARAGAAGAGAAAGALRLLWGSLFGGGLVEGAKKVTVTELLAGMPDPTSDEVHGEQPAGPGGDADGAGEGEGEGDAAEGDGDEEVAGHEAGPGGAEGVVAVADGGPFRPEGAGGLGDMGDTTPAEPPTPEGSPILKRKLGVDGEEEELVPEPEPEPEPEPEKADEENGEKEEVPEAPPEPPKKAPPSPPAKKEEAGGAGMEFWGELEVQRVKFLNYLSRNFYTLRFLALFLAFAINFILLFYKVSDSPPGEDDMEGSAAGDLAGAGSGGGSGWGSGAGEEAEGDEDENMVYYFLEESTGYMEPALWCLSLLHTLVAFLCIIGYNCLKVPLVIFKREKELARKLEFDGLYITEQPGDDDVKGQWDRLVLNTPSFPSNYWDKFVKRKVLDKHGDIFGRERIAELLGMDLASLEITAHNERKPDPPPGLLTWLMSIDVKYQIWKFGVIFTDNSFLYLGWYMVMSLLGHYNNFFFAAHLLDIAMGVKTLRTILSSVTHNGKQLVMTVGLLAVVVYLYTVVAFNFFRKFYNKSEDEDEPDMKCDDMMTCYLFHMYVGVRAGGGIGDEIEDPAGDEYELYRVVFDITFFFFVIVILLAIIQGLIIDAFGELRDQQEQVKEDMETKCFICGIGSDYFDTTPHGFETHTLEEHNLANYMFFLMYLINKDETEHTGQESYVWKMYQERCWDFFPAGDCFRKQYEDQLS

binding result: binds
B1: RyR-specific nanobody Nb9657 (VHH)
VHH: QVQLQESGGGLMQAGGSLRLSCTASGSIFSINSMGWYRQAPGKQRELVATITSGNSINYADSVKGRFTISRDNAKNTVYLQMNSLKPEDTAVYYCNADRVPNGYNPWGTPNDEYDYWGQGTQVTVSS
